# In patent US20090317414A1, “CANCER VACCINE COMPRISING A MUCIN 1 (MUC1) T CELL EPITOPE-DERIVED PEPTIDE” (4G VACCINES PTY LTD, priority 2006, published 2009):
# What was measured:
# [1] = molecular target: T1, soluble H-2K^b (soluble extracellular domains; heavy chain residues 1-274 with C-terminal His-tag and β2-microglobulin residues 1-99) (mouse); test: inhibition assay with soluble H-2K^b, 4° C.
# T1 chain: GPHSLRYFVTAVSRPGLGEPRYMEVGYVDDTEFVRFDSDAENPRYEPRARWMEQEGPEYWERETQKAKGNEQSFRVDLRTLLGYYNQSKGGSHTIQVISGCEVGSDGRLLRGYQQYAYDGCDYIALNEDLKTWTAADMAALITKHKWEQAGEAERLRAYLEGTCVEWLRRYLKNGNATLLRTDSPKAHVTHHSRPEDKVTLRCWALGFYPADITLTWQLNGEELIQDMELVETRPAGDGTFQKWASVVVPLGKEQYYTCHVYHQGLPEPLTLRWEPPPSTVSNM
# [2] = molecular target: T1, soluble H-2K^b (soluble extracellular …); test: inhibition assay with soluble H-2K^b, 23° C.
# [3] = molecular target: T1, soluble H-2K^b (soluble extracellular …); test: inhibition assay with soluble H-2K^b, 37° C.
binder,measurement,setting,value
"RGYVYQGL (modifications not checked) [VSV8 (RGYVYQGL), Vesicular stomatitis virus NP52-59]",Kd,[1],34 nM
same,Kd,[2],27 nM
same,Kd,[3],163 nM
